Data as given in patent US20040052799A1, “Nucleic acid and amino acid sequences relating to Helicobacter pylori for diagnostics and therapeutics” (Astra Aktiebolag, priority 1996, published 2004).

How the values were obtained:
[1] = molecular target: T1, H. pylori KDO-8-P synthase (Helicobacter pylori, UniProt Q9ZN55); test: KDO-8-P synthase Assay 1, PEP utilization at 232 nm; assay type: biochemical; conditions: room temperature, 0.3 mM Ara5P, 0.3 mM PEP, pH 7.5
T1 construct: histidine tag; made in house
Experimental: The enzyme reaction was performed in a final volume of […] containing 0.3 mM Ara5P, 0.3 mM PEP and 0.1 M Tris-acetate pH 7.5. Reactions were started with […] of purified enzyme and were followed spectrophotometrically at 232 nm for 15 minutes. As a control, the mixture minus enzyme was measured. No decrease in the absorbance at 232 nm was observed when no enzyme was added. […] An extinction coefficient of 2840 M cm^−1 of PEP, was used to estimate that at room temperature, the activity of the enzyme was 0.7-mole/min/mg protein.

[2] = molecular target: T1, H. pylori KDO-8-P synthase; test: KDO-8-P synthase Assay 2, Pi release, molybdate-malachite green; assay type: biochemical; parameters: unit not given here; conditions: 25° C., 0.3 mM Ara5P, 0.3 mM PEP, 1.28 ug/ml enzyme
Experimental: Because of the potential interference of test compounds on the assay at 232 nm, a method was developed to measure the amount of Pi released in the reaction (Lanzatta et al. 1979).
This assay ws performed in a 96 well ELISA place, 50 ul assay mixtures containing 0,1 M Tris-acetate (pH 7.5), 0.3 mM Ara5P and 0.3 mM PEP, and 1.28 ug/ml of KDO-8-P synthase were incubated at 25° C. for different times. The reaction was then quenched with the addition of the molybdate-malachite green reagent. […] Under those conditions, the activity measured was 0.734-moles/min/mg protein, which was similar to the rate that was measured with the 232 nm assay.
When assayed in the presence of 0.02% Brij 35, the reaction proceeded faster. Under those conditions, the activity increased up to 1 mole/min mg protein.

[3] = molecular target: T1, H. pylori KDO-8-P synthase; test: Long term storage stability of KDO-8-P synthase
Experimental: The long term storage stability of the enzyme was tested over several conditions. […] Enzyme stored in 50% glycerol appeared to have less activity during extended storage at −20° C. (FIG. 9).

B1: KDO-8-P synthase: recombinant H. pylori KDO-8-P synthase, histidine-tagged fusion protein (SEQ ID NO: 6945) (protein, listed as Helicobacter pylori)
chain: MKTSNTKTPKPVLIAGPCVIESLENLRSIAIKLQPLANNERLDFYFKASFDKANRTSLESYRGPGLEKGLEMLQTIKDEFGYKILTDVHESYQASVAAKVADILQIPAFLCRQTDLIVEVSQTNAIVNIKKGQFMNPKDMQYSVLKALKTRDSSIQSPTYETALKNGVWLCERGSSFGYGNLVVDMRSLKIMREFAPVIFDATHSVQMPGGANGKSSGDSSFPPILPRAAAAVGIDGLFAETHIDPKNALSDGANMLKPDELEHLVTDMLKIQNLF
modifications: His tag; misc_feature (B) LOCATION 1...276; hypothetical: YES
With B1 the “activity of the enzyme” value [1] was 0.7 mole/min/mg protein, the activity measured [2] was 0.734 and the activity after storage ([3]; 50 mM phosphate pH 8.0 and 1 mM PEP, −20° C., at least three weeks) was “no loss of activity”. For the same molecule, the activity after storage ([3]; 50% glycerol, extended storage at −20° C., FIG. 9) was “less activity”.
